Reference: article PMC8956951 (The Journal of Biological Chemistry, 2022)
Numbering of substitutions follows the chain as printed. In names and notes the source's numbering stands. Several values for one entry are separate records, joined by “and”; a condition that tells them apart may be missing. Equal entries are not always repeated.

Experiments:
[1] = biological target: T1, Fu-bc subunit protein (Dengue virus (DENV-2-like E domain II), …); assay: SPR
T1 chain: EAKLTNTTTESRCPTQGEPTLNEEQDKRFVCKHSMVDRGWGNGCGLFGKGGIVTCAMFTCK

[2] = biological target: T1, Fu-bc subunit protein; assay: BLI
[3] = biological target: T2, Fu-bc fused to the GAL4 activation domain (pGADT7) (Dengue virus (DENV-2-like E domain II), …); assay: two-hybrid
T2 chain: T1 chain

B1: scFv-Mutant9 (S227W) (scFv, V domains shown)
VH: EVKLVESGGGLVLPGGSLRLSCATSGFTFTDYYMTWVRQPPGKALEWLGFIGNKANDYTTEYSASVKGRFTISRDDSQSILYLQMSTLRAEDRATYYCATVYGNYPYFDVWGAGTTVAVSS
VL: QIVLTQSPAIMSASPGEKVTMTCSASSSVSYMHWYQQKSGTSPKIWIYESSKLASGVPVRFSGSGSGTSYSLTISSMEAEDVATYYCQQWSWHPHPLTFGAGTKLELK
- binding result [1]: binds

B2: scFv-Mutant7 (Y105W) (scFv, V domains shown)
VH: B1 VH with Y105W
VL: B1 VL with W92S
- binding result [1]: binds

B3: scFv double mutant12 (T30W, S227W) (scFv, V domains shown)
VH: B1 VH with T30W
VL: B1 VL
- binding result [1]: binds

B4: scFv double mutant13 (Y33Q, G103T) (scFv, V domains shown)
VH: B1 VH with Y33Q, G103T
VL: B1 VL with W92S
- fold change in affinity against the WT [1]: 45 fold

B5: scFv-mutant18 (Y33Q, Y105W, H230W) (scFv, V domains shown)
VH: B1 VH with Y33Q, Y105W
VL: B1 VL with W92S, H95W
- fold change in affinity against the WT [1]: ~7 fold
- Kd [2]: 310 ± 35 nM

B6: scFv-mutant15 (D31L, Y105W, S227W) (scFv, V domains shown)
VH: B1 VH with D31L, Y105W
VL: B1 VL
- Kd [1]: 24 nM and 20 to 52 nM
- Kd [2]: 21 ± 11 nM

B7: scFv-mutant17 (Y33Q, G103T, S227L) (scFv, V domains shown)
VH: B1 VH with Y33Q, G103T
VL: B1 VL with W92L
- Kd [1]: 27 ± 11 nM
- Kd [2]: 31 ± 14 nM

B8: scFv-Mutant5 (Y33Q) (scFv, V domains shown)
VH: B1 VH with Y33Q
VL: B1 VL with W92S
- Kd [1]: 302 ± 15 nM

B9: scFv-Mutant6 (G103T) (scFv, V domains shown)
VH: B1 VH with G103T
VL: B1 VL with W92S
- binding result [1]: binds

B10: scFv-mutant16 (T30W, Y33Q, S227W) (scFv, V domains shown)
VH: B1 VH with T30W, Y33Q
VL: B1 VL
- Kd [1]: 52 ± 17 nM
- Kd [2]: 47 ± 19 nM

B11: scFv-Mutant8 (S227L) (scFv, V domains shown)
VH: B1 VH
VL: B1 VL with W92L
- binding result [1]: binds

B12: scFv-mutant16 fused to the GAL4 DNA-binding domain (pGBKT7) (scFv, V domains shown)
VH: B1 VH with T30W, Y33Q
VL: B1 VL
- binding result [3]: binds

B13: scFv-mutant17 fused to the GAL4 DNA-binding domain (pGBKT7) (scFv, V domains shown)
VH: B1 VH with Y33Q, G103T
VL: B1 VL with W92L
- binding result [3]: binds

B14: scFv-mutant15 fused to the GAL4 DNA-binding domain (pGBKT7) (scFv, V domains shown)
VH: B1 VH with D31L, Y105W
VL: B1 VL
- binding result [3]: binds

B15: scFv single mutant D31F (scFv, V domains shown)
VH: B1 VH with D31F
VL: B1 VL with W92S
- binding result [1]: binds

B16: scFv-mutant18 fused to the GAL4 DNA-binding domain (pGBKT7) (scFv, V domains shown)
VH: B1 VH with Y33Q, Y105W
VL: B1 VL with W92S, H95W
- binding result [3]: binds

B17: scFv double mutant T30W, S227L (scFv, V domains shown)
VH: B1 VH with T30W
VL: B1 VL with W92L
- binding result [1]: binds

B18: scFv-Mutant1 (T30W) (scFv, V domains shown)
VH: B1 VH with T30W
VL: B1 VL with W92S
- binding result [1]: binds

B19: scFv single mutant D31L (scFv, V domains shown)
VH: B1 VH with D31L
VL: B1 VL with W92S
- binding result [1]: binds
